For this assay, the system named is EGFR. In words: EGF stimulation of EGFR wildtype cells, western blot of CDCA3 (FIG. 11). Format: cell-based. The following applies: EGFR wildtype cells stimulated with EGF. The text has this: FIG. 11. CDCA3 levels are elevated in EGFR^mutNSCLC cell lines. Stimulation of receptor tyrosine kinase (RTK) signalling in EGFR wildtype cells induces the upregulation of CDCA3 protein.
The current Example examined whether elevated CDCA3 was as a result of activating mutations in epidermal growth factor receptor (EGFR) that solely occur in cases of NSCLC adenocarcinoma. In in vitro models of disease, CDCA3 protein levels were examined by western blot analysis and it was identified that CDCA3 protein is markedly elevated in EGFR mutant NSCLC cell lines versus EGFR wildtype cell lines (FIG. 11). The present inventors also identified that stimulation of EGFR wildtype cells with EGF, an EGFR ligand, induced PI3K-Akt downstream signal transduction and the upregulation of CDCA3 protein. PI3K-Akt was constitutively activated in EGFR mutant NSCLC cell lines.

The text below walks through data of patent US20230323466A1, “DETERMINING CANCER RESPONSIVENESS TO TREATMENT” (Queensland University of Technology, priority 2020, published 2023).

B1: EGF: an EGFR ligand (protein, UniProt P01133 23-1207, looked up)
Pro-epidermal growth factor: PQHWSCPEGTLAGNGNSTCVGPAPFLIFSHGNSIFRIDTEGTNYEQLVVDAGVSVIMDFHYNEKRIYWVDLERQLLQRVFLNGSRQERVCNIEKNVSGMAINWINEEVIWSNQQEGIITVTDMKGNNSHILLSALKYPANVAVDPVERFIFWSSEVAGSLYRADLDGVGVKALLETSEKITAVSLDVLDKRLFWIQYNREGSNSLICSCDYDGGSVHISKHPTQHNLFAMSLFGDRIFYSTWKMKTIWIANKHTGKDMVRINLHSSFVPLGELKVVHPLAQPKAEDDTWEPEQKLCKLRKGNCSSTVCGQDLQSHLCMCAEGYALSRDRKYCEDVNECAFWNHGCTLGCKNTPGSYYCTCPVGFVLLPDGKRCHQLVSCPRNVSECSHDCVLTSEGPLCFCPEGSVLERDGKTCSGCSSPDNGGCSQLCVPLSPVSWECDCFPGYDLQLDEKSCAASGPQPFLLFANSQDIRHMHFDGTDYGTLLSQQMGMVYALDHDPVENKIYFAHTALKWIERANMDGSQRERLIEEGVDVPEGLAVDWIGRRFYWTDRGKSLIGRSDLNGKRSKIITKENISQPRGIAVHPMAKRLFWTDTGINPRIESSSLQGLGRLVIASSDLIWPSGITIDFLTDKLYWCDAKQSVIEMANLDGSKRRRLTQNDVGHPFAVAVFEDYVWFSDWAMPSVMRVNKRTGKDRVRLQGSMLKPSSLVVVHPLAKPGADPCLYQNGGCEHICKKRLGTAWCSCREGFMKASDGKTCLALDGHQLLAGGEVDLKNQVTPLDILSKTRVSEDNITESQHMLVAEIMVSDQDDCAPVGCSMYARCISEGEDATCQCLKGFAGDGKLCSDIDECEMGVPVCPPASSKCINTEGGYVCRCSEGYQGDGIHCLDIDECQLGEHSCGENASCTNTEGGYTCMCAGRLSEPGLICPDSTPPPHLREDDHHYSVRNSDSECPLSHDGYCLHDGVCMYIEALDKYACNCVVGYIGERCQYRDLKWWELRHAGHGQQQKVIVVAVCVVVLVMLLLLSLWGAHYYRTQKLLSKNPKNPYEESSRDVRSRRPADTEDGMSSCPQPWFVVIKEHQDLKNGGQPVAGEDGQAADGSMQPTSWRQEPQLCGMGTEQGCWIPVSSDKGSCPQVMERSFHMPSYGTQTLEGGVEKPHSLLSANPLWQQRALDPPHQMELTQ
modifications: Pro-epidermal growth factor
notes: an EGFR ligand
Consider B1, for which the CDCA3 protein result is “upregulation”.
